According to IntAct's records for PubMed 15611164:

B1: Ankyrin repeat-containing protein YAR1 (Saccharomyces cerevisiae), P46683 (parent)
chain: MGLHSEPLDQEDQDTIILDARAGDLDSLKDIFTTLVSPELLSTCKESESDSTALHMAAANGHIETVRYILETVSRANSAEDLKAFVNEVNKTGNTALHWASLNGKLDVVKLLCDEYEADPFIRNKFGHDAIFEAENSGKEEVETYFLKKYDVEPEDDEEDTQTEGKNSVQITKGTEIEQVTKEATEALREETEKLNINKD
partner: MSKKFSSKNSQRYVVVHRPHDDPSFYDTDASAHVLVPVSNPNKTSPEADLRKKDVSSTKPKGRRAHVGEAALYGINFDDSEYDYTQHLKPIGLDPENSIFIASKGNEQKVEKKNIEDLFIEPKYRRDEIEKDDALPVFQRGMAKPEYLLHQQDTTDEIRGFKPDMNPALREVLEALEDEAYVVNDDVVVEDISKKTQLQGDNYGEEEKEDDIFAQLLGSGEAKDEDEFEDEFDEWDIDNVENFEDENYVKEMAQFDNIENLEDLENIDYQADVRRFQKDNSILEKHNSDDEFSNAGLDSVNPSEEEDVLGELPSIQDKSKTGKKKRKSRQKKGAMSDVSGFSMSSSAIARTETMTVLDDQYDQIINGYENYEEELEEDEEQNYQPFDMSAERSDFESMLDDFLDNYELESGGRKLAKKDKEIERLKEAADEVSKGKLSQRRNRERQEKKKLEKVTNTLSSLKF

Variants of: B1
Conditions: with ltv1_yeast LTV1, P34078

| effect of a mutation on the interaction | Variant |
| --- | --- |
| decreasing interaction | MGLHSEPLDQEDQDTIILDARAGDLDSLKDIFTTLVSPELLSTCKESESDSTALHMAAANGHIETVRYILETVSRANSAEDLKAFVNEVNKTGNTALHWASLNGKLDVVKLLCDEYEADPFIRNAFGHDAIFEAENSGKEEVETYFLKKYDVEPEDDEEDTQTEGKNSVQITKGTEIEQVTKEATEALREETEKLNINKD [K125A] |
| decreasing interaction | MGLHSEPLDQEDQDTIILDARAGDLDSLKDIFTTLVSPELLSTCKESESDSTALHMAAANGHIETVRYILETVSRANSAEDLKAFVNEVNATGNTALHWASLNGKLDVVKLLCDEYEADPFIRNKFGHDAIFEAENSGKEEVETYFLKKYDVEPEDDEEDTQTEGKNSVQITKGTEIEQVTKEATEALREETEKLNINKD [K91A] |
